Assay results from the supplement of paper PMC9732359.
± gives the uncertainty stated by the source.

Test: protein stability index of a GFP-peptide fusion (yeast GPS) (PSI 1-4); higher = more stable; sorted into four equal gates, so the index is relative within each strain
Conditions: san1∆
Procedure, shortened: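 For each peptide, the protein stability index sums the read frequency in every gate after multiplying it by the gate number. Read frequencies came from plasmids that were PCR-amplified from each gate and Illumina-sequenced, with reads assigned to strains by barcodes. The gates were four equal bins of GFP/Cherry fluorescence ratio applied to mid-log yeast in leucine-free medium carrying a pooled library of tiled 17-residue yeast protein peptides fused downstream of GFP on a Cherry-expressing plasmid.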

Sequence | protein stability index
ISLYFNDILDELLCGMA [ECM29] | 2.04 ± 0.18

Same assay, conditions: ubr1∆

Sequence | protein stability index
IDESMPDTAIDSQMDEA [GRR1] | 3.06 ± 0.059
IDIDKLIQLGVKPLESS [SRP72] | 2.82 ± 0.054
IDPDTKAPNAVVITFEK [RPB11] | 2.93 ± 0.15
IDVMKSQIIPLMKKACY [SNU114] | 2.08 ± 0.05
IDVNLNFARQLLFNNDF [RRP40] | 1.82 ± 0.05
IEDKENSESTTQGGNVN [RPT5] | 3.6 ± 0.11
IEELDNPMVPSSVNEDT [PRP8] | 3.26 ± 0.049
IEGVVILKKNPDYREEE [RPN1] | 3.1 ± 0.062
IEHPMTSAIEVLVGSCA [RPN1] | 1.82 ± 0.046
IEIKISDPLTVFSESCS [SNU114] | 2.45 ± 0.06
IEINEDNSQDDQDRGAA [RRI2] | 3.04 ± 0.11
IEKARVEAQSHRLTLED [PRE6] | 3.26 ± 0.15
IELLSDLINILEKKGFS [LIN1] | 1.35 ± 0.062
IELNFDAVKDFKLGKFN [QCR2] | 3.71 ± 0.25
IEPELFNGYNPEKKEMI [FAS2] | 3.43 ± 0.14
IERIGHLLSINYGEKEE [PCI8] | 1.18 ± 0.049
IFLAERRILPKPSRTSR [RPS7A] | 2.89 ± 0.13
IGAELKREESESAAVYN [SNF2] | 3.21 ± 0.071
IGARSQGAKTYLERTLD [PRE5] | 3.22 ± 0.066
IGDDGYDLLISTLTTIS [SRB5] | 2.2 ± 0.061
IGGLLSKVREEVGDVCI [RPO31] | 2.79 ± 0.11
IGIVDYEAGASHGNPVV [FAS1] | 3.19 ± 0.04
IGQSEELSDKEIYTVED [ISW2] | 3.44 ± 0.13
IGTADIFIRQLKENEEN [BRR2] | 1.36 ± 0.1
IGVIQLAHYVVTAKLLG [FAS1] | 1.35 ± 0.053

Sequence | protein stability index
IGWCKEDPKRRADTMDF [YJL039C/NUP192] | 3.39 ± 0.12
IHKRYIDLEAPVQIVKR [RPS20] | 2.96 ± 0.12
IHLKQKLSESLDTRKEL [SMC3] | 3.49 ± 0.15
IHTQLSEIKQQINKAQI [YJL039C/NUP192] | 3.12 ± 0.2
IIERYIKSKADAWVSAA [PRP8] | 2.09 ± 0.12
IIGHNPDENKTRVRLPS [RPL2A] | 3 ± 0.048
IIKRSNGQSLSPVRSDS [YMR153W/NUP53] | 2.81 ± 0.037
IITKNENFLKEVFQLRI [GAL11] | 1.26 ± 0.062
IITNINAIFLSSEQDYS [YCG1] | 2.89 ± 0.098
IKAFMDSTIGNSKVDMK [IRR1] | 2.05 ± 0.19
IKDTANDNDITVKENES [UBP6] | 1.41 ± 0.047
IKEKFDEFIKTHEDLPK [IRR1] | 3.01 ± 0.071
IKELRSKGYPIQFLTIG [FAS1] | 1.68 ± 0.071
IKESSKKIKGKSIQDIV [SRP21] | 3.14 ± 0.12
IKGIREYEEWQKSVSLL [YDL116W/NUP84] | 2.55 ± 0.095
IKGNGESDETTTDNNNS [RPT1] | 3.53 ± 0.11
IKIEDFVDDMLRDYRFE [SNF5] | 2.97 ± 0.078
IKKMLHLVWMKGTNDEG [YCS4] | 3.33 ± 0.18
IKLGSTAIGIATKEGVV [PUP2] | 1.32 ± 0.11
IKNGRIYFTVPNEFEIQ [RGR1] | 2.57 ± 0.043
IKNIGKSLKNNFYRPLL [YML103C/NUP188] | 2.77 ± 0.078
IKQTFKNDLFVIWSEDN [RPO21] | 2.36 ± 0.056
IKTRTVHELSKRVHTLL [ISW2] | 1.49 ± 0.049
IKVENLNDTTEKSKALE [SMC2] | 3.25 ± 0.059
ILEDDFAVALKNEPDYS [CDC53] | 2.87 ± 0.12

Sequence | protein stability index
ILGIHTSKMNLSEDVNL [RPT2] | 3.14 ± 0.067
ILINTARIHAQNYLKTY [PRE9] | 1.89 ± 0.06
ILKLLNGFMESAIVNED [SOH1] | 3.57 ± 0.22
ILLEPIYEVDITVHAPL [SNU114] | 2.47 ± 0.046
ILLQHKEKLTVQDCRYS [POP1] | 2.42 ± 0.03
ILNDIETLEHNPVALEQ [BRR2] | 3.13 ± 0.077
ILPQQSKLKLKNLLRKN [ECM29] | 2.25 ± 0.074
ILTGTPLQNNLPELWAL [SNF2] | 2.3 ± 0.043
ILTSLMRSKLEKLTLVT [CSN9] | 2.67 ± 0.059
ILVPDLYHLVIMKFQSL [ECM29] | 1.38 ± 0.063
IMAKRPFDKKSNSALFR [FAS1] | 2.89 ± 0.05
IMDNDPVLFNRQPSLHK [RPO21] | 1.84 ± 0.074
IMNLITNEPCGAQFSRS [RPN4] | 2.96 ± 0.17
IMWQLLDGVSYLHQNWV [SSN3] | 1.75 ± 0.076
INAQGEEIVVVASADYE [PRP8] | 2.73 ± 0.04
INIQKKLEPKEIVRDIL [SIR4] | 2.86 ± 0.11
INLTQTYGISVVDVALK [NUT1] | 2.55 ± 0.038
INQIFSPEEQRSLLQEA [GAL11] | 3.03 ± 0.1
INSGTFVKVTKATLELL [RPL7A] | 2.9 ± 0.12
IPDMSKNVELGWKPLRY [SNU114] | 3.22 ± 0.15
IPGEEVEETEVPTVPPS [MED4] | 2.62 ± 0.059
IPIGHVHVIHFQHADNS [AAR2] | 2.65 ± 0.05
IPQDFENEVSDIDVTIV [ESC2] | 2.42 ± 0.054
IPSIPNPIANHTVTNSP [SNF5] | 2.6 ± 0.027
IPTKESLTRDFEQCCKE [YIL149C/MLP2] | 2.88 ± 0.13

Sequence | protein stability index
IPVYCFSHPAHQQRMSR [YCG1] | 2.04 ± 0.037
IPYSRNAPAWFKLSSES [RPS13] | 2.44 ± 0.052
IQDSNGDVKNMEDVKIQ [SWI3] | 2.94 ± 0.061
IQEFLVVIEKRRKKILN [GRR1] | 2.94 ± 0.088
IQEYQLCDNFNHFSLSY [COR1] | 2.27 ± 0.057
IQKQIETIQADLNHVTE [SMC2] | 2.87 ± 0.039
IQRTRERKKSIGSQRGR [DSN1] | 2.91 ± 0.069
IQWYKSLLEKDIDAVNG [ISW2] | 2.82 ± 0.055
IRAQNFKSALANLEDII [RRP6] | 1.41 ± 0.047
IRFVCLSNCLANARDFG [BRR2] | 2.24 ± 0.044
IRIFRSELQRLSHENNV [RPT5] | 2.9 ± 0.091
IRIYDLGKKKATVDEFP [RPL10] | 1.29 ± 0.035
IRKLLEKINRMIIFLKN [CSI1] | 1.19 ± 0.041
IRKLVKNGTIVKKAVTV [RPL19A] | 3.28 ± 0.072
IRKQPDDIINNDEPSHK [SIR2] | 2.83 ± 0.039
IRKSETSGRYASYRICM [RPB5] | 2.97 ± 0.086
IRKTPLAQKKAHLAEIQ [RPL3] | 1.26 ± 0.05
ISKHSKQAIYTRATASE [RPS25A] | 1.85 ± 0.039
ISLIPELSVVLSGIIQD [RRI2] | 1.99 ± 0.064
ISLLKNRRKQSFVLNKN [RPN4] | 3.21 ± 0.14
ISLRNNMFELAQQLVGV [SMC4] | 1.87 ± 0.084
ISLSFSRPASYGYFSVG [SIR4] | 2.07 ± 0.052
ISLYFNDILDELLCGMA [ECM29] | 1.48 ± 0.06
